{
  "source": "paper PMC11772769",
  "about": "“Selective cargo and membrane recognition by SNX17 regulates its interaction with Retriever” (EMBO Reports, 2024)",
  "parents": {"B1": {"name": "unnamed (parent)", "chain 1": "MHFSIPETESRSGDSGGSAYVAYNIHVNGVLHCRVRYSQLLGLHEQLRKEYGANVLPAFPPKKLFSLTPAEVEQRREQLEKYMQAVRQDPLLGSSETFNSFLRRAQQETQQVPTEEVSLEVLLSNGQKVLVNVLTSDQTEDVLEAVAAKLDLPDDLIGYFSLFLVREKEDGAFSFVRKLQEFELPYVSVTSLRSQEYKIVLRKSYWDSAYDDDVMENRVGLNLLYAQTVSDIERGWILVTKEQHRQLKSLQEKVSKKEFLRLAQTLRHYGYLRFDACVADFPEKDCPVVVSAGNSELSLQLRLPGQQLREGSFRVTRMRCWRVTSSVPLPSGSTSSPGRGRGEVRLELAFEYLMSKDRLQWVTITSPQAIMMSICLQSMVDELMVKKSGGSIRKMLRRRVGGTLRRSDSQQAVKSPPLLESPDATRESMVKLSSKLSAVSLRGIGSPSTDASASDVHGNFAFEGIGDEDL", "chain 2": "not shown"}},
  "data": [
    {"variants_of": "B1", "test": "fluorescence anisotropy", "conditions": "with partner chain of the complex shown; 5-FAM-labeled L2 14-mer peptide", "units": {"Kd": "µM"}, "values": [
      {"variant": "chain 1 H457A", "Kd": 1.1},
      {"variant": "chain 1 W321A", "Kd": 76}
    ]}
  ]
}
